assay: yeast display, Sf9 membrane polyspecificity reagent, FACS + sequencing; frameworks hold sequencing errors
In short: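 Polyreactivity labels are assigned by the sorting gate from which each nanobody was recovered. The gates were low and high (top ~1%), set on anti-HA fluorescence for expression and streptavidin fluorescence for reagent binding. Before sorting, galactose-induced (36–48 hours) yeast display cells were stained for 1 hour at 4 °C with 10% biotinylated, detergent-solubilized Sf9 membrane reagent.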

Sequence	polyreactivity (PSR sort gate)
QVQLVESGGGLVQAGGSLRLSCATSGRTFWFYAMGWYRQAPGKERELVAAISSGGSTNYADSVKGRFTISRDNAKNTVYLQMNSLKPEVTAVYYCAKVGNIPYGTRYYSNRYDYWGQGTQVTVSS	low polyreactivity
QVQLVESGGGLVQAGGSLRLSCADSGFIFTAYAMGWYRQAPGKERELVAAISRSGGRTYYADSVKGRFTISRDNAKNTVYLQMNSLKPEDTAVYYCNADFHSGGGYWGQGTQVTLSS	high polyreactivity
QVQLVESGGGLVQAGGSLRLSCAASGLIFRTYTMGWYRQAPGKERELVATITRRCGTTYYADSVKGRFTISRDNAKNTVYLQMNSLKPEDTAVYYFAKSPYYTWKYDYWGQGTQVTVSS	high polyreactivity
QVQLVESGGGLVQAGGSLRLSCAATGFIFSYYAMGWYRQAPGKERELVATITSGGSTYYADSVKGRFTISRDNAKNTVYLQMNSLKPEDTAVYYCNADWYWRVYWGQGTQVTVSS	high polyreactivity
QVQLVETGGGLVQAGGSLRLSCAASGSIFQYYAMGSYRQAPGKERELVAAISSGGRTNYADSVKGRFTISRENAKNSVYLQMNSLKPEDTAVYYCAAARYYYQVYRWEYDYWGQGTQVTVSS	high polyreactivity
QVQLVESGGGFVQAGVSLRLSCAASGSIYYNAMGWYIQAPGKERELVAGITSSGGSTYYADSVKGRFTISRDNAKNTVYLQMISLKPEDTAVYFCAADFVYLCTLFGAYDYCGQGTQVTVSS	low polyreactivity
QVQLVESGGGLVQAGGSLRLSCAASGNTFYGYTMGWYIQAPGKDRELVAAISGRGGSTTYADSVKGRFTISRDNAKNTVYLQMNSLNPEDTAVYYCAATYVYIRTRFYYWGQGTQVTVSS	high polyreactivity
QVQLVESGGGLVQAGGSLRLSCAASGFTSYLYTMGWYRQAPGKERELVATITLRGGSTYYADSVKGRFTISRDNAKNTVYLQMNSLKPEDTAVYYCAAPAYLTSHSRYDYWGQGTQVSVSS	high polyreactivity
QVQLVESGGGLVQAGGSLRLSCAASGFTFYSYAMGWYRQAPGKERELVAAISRSGGRTYYADSVKGRFTISRDNAKNTVYLQMNSLKPEDTAVYYCAAEAYGPYSYSYSPYGYYYWGQGTQVTVSS	high polyreactivity
QVQLVESGGGLVQAGGSLRLSCAASGSTFYAYAMGWYRQAPGKERELVAAISSDGTNYADSVKGRFTISRDNAKNSVNLQMNSLKPVDTAVYYCAADLLLYSSQDNDYWGQGTQVTVSS	low polyreactivity
QVQLVESGGGLVQAGGSLRLSCAASGRTFEHYAMGWYRQAPGKEREFVAVIDSSDGSTYYADSVKGRFTISRDNAKNTVYLQMNSLKPEDTAVYYCLGGYYYLQYDYWGQGTQVTVSS	low polyreactivity
QVQLLESGGGLVQAGGSLRLSCAASGSIFEGNGMGWYRQAPGKERELVAAITFRSGSTYYADSVKGRFTISRDNAKNTVYLQMNSLKPEDTAVYYCAADEYYEVSAYDYWGQGTQVTVSS	low polyreactivity
QVQLVESVGGLVQAGGSLRLSCAASGSILQHYAMGWYRQAPGKETELVASISWTGGSTYYADSVKGRFTISRDNAKNTVYLQMNCLKPEDTAVYYCAARRYRYYSRGSWGQGTQVTVSS	high polyreactivity
QVQLVESGGGLVQAGGSLRLSCAASGFTFWSYGMGWYRQAPGKERELVAAISWSGGRTYYADSVKGRFTISRDNAKNTVYLQMNSLKPDDTAVYYCAAQPYYYFDEYTQYDYWGQGTQVTVSS	high polyreactivity
QVQLVESGGGLVQAGGSLRLSCAASGFIFSRYDMGWYRQAPGKERELVAAIDWSGDSTYYADSVKGRFTISRDNAKHTVYLQMNSLQPEDTAVYYCAAYYYWGQGTQVTVSS	low polyreactivity
QVQLVDTGGGLVQAGGSLRLSCAASGITFYFYVMGWYRQAPGKERELVADISTSDDSTYYADSVKGRFTISRDNAKNTVYLQMNSLKPEDTAVYYCATATRTYSAWYEYVYWGQGTQVTVSS	low polyreactivity

Sequence	polyreactivity (PSR sort gate)
QVQLVESGGGLVQAGGSLRLSCAAPGIIFVDYTMGWYRQAPGKERELVAAIDWSGGSTYYADSVKGRFTISRDNAKNTVYLQMNSLKPEDTAVYYCAALKTTYIYSSDFDYWGQGTQVTVSS	low polyreactivity
QVQLVESGGGLVQAGGSLRLSCAASGSTFYPTYAMGWYRQAPGKERELVATITGSGGSTYYADSVKGRFTSSRDNAKNTVYLQMNSLKPEDTAVYYCAADRWYSRYTRYGYWGQGTQVTVSS	low polyreactivity
QVKLVESAGGLVQAGGSLRLSCAASGRTFVGNAMGWYRQEPGKEREVVAAITSRTGSTYYADSVKGRFTISRDNAKNTGYLQMNSLKPEDTAVYYGATPYYQIVYSRKAYNFWGQGTQVTVSS	high polyreactivity
QVQLVESGGGLVQAGGSLRLSCAASGSIFPLNAMGWYRQAPGKERELVATISWRGGITYYADSVKGRFTISRDNAKNTVYLQMNSLKPEDTAVYYCATVGRWNSLWYRYRYDYWGQGTQVTVSS	low polyreactivity
QVQLVESGGGLVQAGGSLRLSCAASGSTFGPYVMGGYRQAPGKERELVAVISGGSTDYADSVKGRFTISRDNAKNTVYLQMNSLKPEDTAVYYCNAEYYFYLSPTVYLYDYWGQGTQVTVSS	high polyreactivity
QVQLEESGGGLVQAGVSLRLSCAASGRIFGVYTMGWYRQAPGKERELVAAISRTGGRTYYADSVKGRFTISRDNAKNTVYLQMNSLKPEDTAVYYCAADSRGEDYYYWGQGTQVTVSS	high polyreactivity
QVQLVESGGGLVQAGGSLRLSCAASGFIIAQYAMGWYRQAPGKERELVAGITSTGSTNYADSVKGRFTISRDNAKNTVYLQMNSLKPEDTAVYYCNTDYITASAVFDYDYWGQDTQVTVSS	low polyreactivity
QVQLVESWGGLVQAGGSLRLSCAASGSTISDNAMGWYRQAPGKERELVATIDDDGSTYYADSVKGRFTISRDNAKKTVYLQMNSLKPEDTAVYYCAAEWYGGYPFGYWGQGTQVTVSS	low polyreactivity
QVQLVESGGGLVQAGGSLRLSCAASGSTFPYNTMGSYIQAPGKESELVATIRSRGDSTYFADSVKGRFTISRDNAKNTVYFQMNSLKPEDTAFYYCNADPRTLWWSRPYYSWGQGTQVTVSS	high polyreactivity
QVQLVESGGGLVQAGGSLRLSCAASGRTFYYNTMGWYRQAPGKERELVATISRIGGSTYYADSVKGRFTISRDNAKNTVYLQMNSLKPEDTAVYYCAAYVAAYPTGYDYWGQGTQVTVSS	high polyreactivity
QVQLVESGGGLVQAGGSLRLRCDASGLIFYDNMGWYRQAPGKERELVAAISSSGGSTSYADSVKGRFTISRDNAKNTVYLQMNSLKPEDTAVYYCAADSYPAYLGFVGFDYWGQGTQVTVSS	low polyreactivity
QVHLVESGGGLVQAGGILRLSCAASGFIFLQYTMGWYRPAPGKERELVAGISWSGDSTYYADSVKGRFTISRDNAKNTVYLQMNSLKPEDTAVYYCNADWRAAGSDFAFGNPQLYDDWGQGSQVTVSS	low polyreactivity
QVQLVESGGGLVQAGGSLRLSCAASGSIFWANAMGWYRQAPGKERELVAAISSSGGRTYYADSVKGRFTISRDNAKNTVYLQMNSLKPEDTAVYYCNKLRLAYYEQGDYWGQGTQVTVSS	high polyreactivity
QVQLVESGGGLVQAGGSHRLSCAPSGRTYYMYAMGWYRPAPGKEREFVAAITSGGSRNYADSVKGRFTISRDNAKKTVYLQMNSLKPEDTAVYYWARYRGYWGRYYGVDYGYWGQGTQVTVSS	high polyreactivity
QVQLVESGGGLVQAGGSLRLSCAASGSILLNNAMGWYRQAPGKERELVAAISLSGGGSTYYADSVKGRFTISRDNAKNTVYLQMNSLKPEDTAVYYCNADDPYLYYDSYDYWGQGTQVTVSS	low polyreactivity

Reference: the nanobody polyreactivity screen of Harvey et al. (2022)
